Source: patent US20210032291A1 (University of Pennsylvania, published 2021)
Bridge positions count the residues as written; N and C are the ends. Square brackets hold non-standard residues; d marks the D form. Ends that are not written are not given here. Trp(1-Me) = Cn1cc(C[C@H](N)C(=O)O)c2ccccc21; NMeI = CC[C@H](C)[C@H](NC)C(=O)O; Orn = NCCC[C@H](N)C(=O)O; Sar = CNCC(=O)O

B1: Compstatin 30 (Cp30): Sar-Ile-[Cys-Val-Trp(Me)-Gln-Asp-Trp-Sar-Ala-His-Arg-Cys]-mIle-NH2 (peptide)
peptide: GICVWQDWGAHRCI
modifications: Sar (N-methyl-Gly) at Xaa0 (N-terminus); Trp(Me) at position 4; Sar at position 8; mIle at position 13; C-terminal -NH2; cyclic via Cys2-Cys12 disulfide (compstatin position numbering)
B2: 4(1MeW): Ac-Ile-[Cys-Val-Trp(Me)-Gln-Asp-Trp-Gly-Ala-His-Arg-Cys]-Thr-NH2 (peptide)
peptide: Ac-ICV[Trp(1-Me)]QDWGAHRCT-NH2
modifications: disulfide 2-12
B3: Peptide 2: Gly-Ile-[Cys-Val-Trp(Me)-Gln-Asp-Trp-Sar-Ala-His-Arg-Cys]-mIle-NH2 (peptide)
peptide: GICV[Trp(1-Me)]QDW[Sar]AHRC[NMeI]-NH2
modifications: disulfide 3-13; N-terminus assumed
SMILES: CC[C@H](C)[C@H](NC(=O)CN)C(=O)N[C@H]1CSSC[C@@H](C(=O)N(C)[C@H](C(N)=O)[C@@H](C)CC)NC(=O)[C@H](CCCNC(=N)N)NC(=O)[C@H](Cc2c[nH]cn2)NC(=O)[C@H](C)NC(=O)CN(C)C(=O)[C@H](Cc2c[nH]c3ccccc23)NC(=O)[C@H](CC(=O)O)NC(=O)[C@H](CCC(N)=O)NC(=O)[C@H](Cc2cn(C)c3ccccc23)NC(=O)[C@H](C(C)C)NC1=O
B4: Peptide 4: Tyr-Ile-[Cys-Val-Trp(Me)-Gln-Asp-Trp-Sar-Ala-His-Arg-Cys]-mIle-NH2 (peptide)
peptide: YICV[Trp(1-Me)]QDW[Sar]AHRC[NMeI]-NH2
modifications: disulfide 3-13
B5: Peptide 1: Me-Ile-[Cys-Val-Trp(Me)-Gln-Asp-Trp-Sar-Ala-His-Arg-Cys]-mIle-NH2 (peptide)
peptide: Me-ICVWQDW[Sar]AHRC[NMeI]-NH2
modifications: disulfide 2-12; not fully specified (residue 4); printed as Me-Ile-[Cys-Val-Trp(Me)-Gln-Asp-Trp-Sar-Ala-His-Arg-Cys]-mIle-NH2
B6: Cp40 (11Orn 6Asn) (peptide)
peptide: [dY]ICV[Trp(1-Me)]QNW[Sar]AH[Orn]C[NMeI]-NH2
modifications: disulfide 3-13
B7: Cp40 (6Asn) (peptide)
peptide: [dY]ICV[Trp(1-Me)]QNW[Sar]AHRC[NMeI]-NH2
modifications: disulfide 3-13; N-terminus assumed
SMILES: CC[C@H](C)[C@H](NC(=O)[C@H](N)Cc1ccc(O)cc1)C(=O)N[C@H]1CSSC[C@@H](C(=O)N(C)[C@H](C(N)=O)[C@@H](C)CC)NC(=O)[C@H](CCCNC(=N)N)NC(=O)[C@H](Cc2c[nH]cn2)NC(=O)[C@H](C)NC(=O)CN(C)C(=O)[C@H](Cc2c[nH]c3ccccc23)NC(=O)[C@H](CC(N)=O)NC(=O)[C@H](CCC(N)=O)NC(=O)[C@H](Cc2cn(C)c3ccccc23)NC(=O)[C@H](C(C)C)NC1=O
B8: Cp40 (11Orn) (peptide)
peptide: [dY]ICV[Trp(1-Me)]QDW[Sar]AH[Orn]C[NMeI]-NH2
modifications: disulfide 3-13

target: T1, C3 protein (target in the classical-pathway complement activation ELISA); test: cell-based or functional assay

IC50, peptide concentration to reach 50% inhibition of classical pathway complement activation (ELISA) [nM] | Binder
82 | B1
132 | B2
113 | B3
72 | B4
180 | B5

target: T1, C3 protein (target in the …); test: cell-based or functional assay; remark: another data set of the same source

IC50, peptide concentration to reach 50% inhibition of classical pathway complement activation [nM] | Binder
0.36 | B6
0.26 | B7
0.22 | B8
